In the domain aggregation screens of Martell et al. (2025):

Assay: soluble fraction after stress (log2 fold change); higher = more stays soluble; pooled small domains, quantitative proteomics
Conditions: stress: 75 degC
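Further: 20 min heating vs room temperature control held 20 min.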

Sequence	soluble fraction (log2)
HMEAEDLRDWVGARGIAYTALRPAGIAVVNGRRVDVVSEGAFVNRDDPVEVVRVEGRRIVVKP	-0.0876
HMEAGTEYVERAADYIRSHFQEDLTVSKLALYVGLNRSYLTTVFQNTLHVSPQQFLMRFRMERAAQLLD	0.0997
HMEAGTVTVTHAAVYIRSGPGVSYPIAGKAAKNDTYTVLQKDGDWFQIRLPQGNTGWIAGWLVETGT	-1.69
HMEAISIYPNPTDNELHLSTSVQEVRIYNMYGIEVTRAANTDRLAVSHLPKGVYLVHADGAVLKMIK	-2.7
HMEAISSESIKKMIKSYVSGEDASKPLSDQQIADLLVKEGYMISRRTVAKYRDELGILSSSKRKR	-0.152
HMEAKQMDAWIVSEAKRQGGKIEPAAAYELSRHTATDTSIASQEIAKLLMYVDFKRPVTREDVVELVSA	0.0579
HMEALPELTDRQRQVYEFIEARIAEWGYPPTIREIGQHLGIKSTNGVADHLKALKRKGYLQQ	-0.566
HMEALTPREREVLTLMGQGRSNAEIATLLSIAPRTAKVHVQNILSKLGATNRTEAVSLAVRQGLIS	0.343
HMEASVNAPMPGKIVSVSVSEGQQVNAGDVLLILEAMKMQNEITADAAGTVKAINVNAGQSVKNGDSLVIL	0.832
HMEAVGLTPRQGDVLALLLQGKPNKLIARDLNLSVETVKDHVAAVLRALGVSTRTQAVLAVSQMQQQAAQ	-0.444
HMEAVLTISPGMYSESVSAELVRLGIITNQKEFNSYLVNNGYAERIQTGDFKIKADMSYDEIARIITK	-0.563
HMEAYDTMEDRTTLAPGFAKLDKRERYILHLRFFEGLTQSQIAERVGISQMHVSRLIRRSLEKLREEIGD	-2.67
HMEAYSAEAVRFRIKAMIESETVDDVMSDDKIVERLLADGVDIARRTVAKYREAMNIPSSVKRRRKLKGM	-1.92
HMEDDRMLVWFFRKSIQNGAQSEAEGRPIFEGKDYVHIQQPGERDYIEREAHQGDIGRWPRHWQAYQEGR	0.246
HMEDEAVMQLPLSELKGLSPELLAILNGAGYEKLKDVLDLEREDIERIPGMTPERNEQLVAFLAELTE	0.619
HMEDELFSVARAAFPEYASKIHMNYGSTVQSIARQSGVLTVSETKQLNENQQISYLEYSNGAVVLALA	-0.0187
HMEDELVMERFDINELVKSVVNANELRATQKNLSITYDILDTPLYVWADEYKVEEVVTNYLS	0.00277
HMEDIASESVKRVIRKIIDDEDKKSPLSDQAIVEILAKGEGIVIARRTVAKYREMMGILPSSKRKKH	-1.4
HMEDKIEESLEDNISELFAKTKDKYTLINDLYSKGYTVEELSRFSGLPSGEVRLVISLNSKN	-0.0653
HMEDKPITKEQKQAMFALLREHFSGDEGNAVYTAVLEREGLAPGDKIMSSVYDRLIDGINEAIRQKLEAGA	-0.0206
HMEDNLMIVVQVNGKKRSEIKVSIDASEDQIKQTALAEPNVQKFVEGHTIRKMILVPSKLLNIVV	-1.65
HMEDPKLAQLTEQERKILDLIADGLTNRQIAEKMFLAEKTVKNYVSTILAKMGMSNRSEAAAYVARLEAG	-0.0697
HMEDPPISQEQRQALFKMAHDHLGKDEGNKAILTLIQSHGLNSTTGMKVSTYNTIMEELVSTIQSLAA	-0.0374
HMEDPVAQEARAAFEVGRLLAAATGPVTLAAIRRAIDLPEERLEEILRRLEESGAVRRARDGWLPG	-0.0316
HMEDVDLFTKAMAALPNRYRDILLLRYSHGYTVEEISDILSMKPENVKKTIQRARKKLGEILEAEG	-1.25
HMEEDPVIAAQRFLNIFRQLHIFTAAKRKEFDELLLKQPASVKGMFASLPGGSVLQEYVNNLEQNAG	-0.564

Sequence	soluble fraction (log2)
HMEEFIEHTVEKGEFLSAIIVAYNQHLKSKGFKSITTRDILNANPKLKPELIQVGQKIKIPRRKK	-1.71
HMEEFLSFIADILEVDKNTLTLETSQDDVETWDSLMQLRLLGEIEAKYGVMIPMERISTIKKLNDFYQYIK	-1.12
HMEEIIPIRFLRHRVKRRETIFGLTQKYNITEDQLKRYNTRLYSEALERKMVLQIPVFPEVDED	-2.29
HMEEITLQEQINFIKDMLLNKEKFHLTDVITKKSKIYVVSLFLALLELIRLEEINFRQTQNFSDIIISRI	0.0172
HMEELGKVRPELDGNEIAKVLGITPGPVLGRAYTYLLSVRLDEGPIGPDVARERLLAWWAEQPES	-1.2
HMEELIEMNGVVMEILPDSRYRVTLDNGHKLIAYTGGKMKKNHIRILAGDKVTLELSPYDINNGRITFRHI	-1.66
HMEELTDSELNNLYRELFIARSNASDGVGIIEQKTIKGITYRLSNDNNYLIKELGNKEYIYKNGVWEEYT	-0.155
HMEENNIVIYITGAVKKEGIYEIKENSRISDAIEAAGGLLENANIKDINLAYIIEDGVKIYIPTNEEVNK	-0.409
HMEEPFRIEKKGDIYYISGKTVERLVAMTDLDNDSAVKRLQRTLKRMGVEDALREHGINPGDTVVIGNYEF	-0.201
HMEEQIEVPVQINGKVRSKLTVAPETDEKQIEALALADPKVQQQLEGKRVLKVIVAQKRLVNIVA	-0.161
HMEESTYQWNNFVRDFYASRVSAQYTNKLKVAAILWHHVKNTPQSKIYHDNLVSKYAEEINYFK	-2.8
HMEETEVPPVTGYEQSKASEVLTGKGLIPDIITVADEETAAGYVIRTDPASGEKVPSGTTVKVYVSSGP	0.248
HMEETGFYIKLQDQEVVIFHNDQVTPYEYTGIREEVLPESELEKLREGFFVEDEKELYSVLENLS	0.0782
HMEETLEELGKEYESAFTMYEKLWSYYKKQNYHQVNHKRSERYEILLGFVREYHPEKVEYYRELL	0.378
HMEETLRALAKKISEKVLKSGRSTTLEPMNPYERRIIHSAVSEIEGVSSKSVGEEPYRKVVISSDNP	0.0756
HMEETLRELAVKISKQVIKTGRNSVLEPMNPYERRIIHAVISEIEGVSSKSVGEDPNRKVVIMSTNP	-0.217
HMEEYTVEFVKHKVKRKQTLYTISKLYNVSIDDIIKYNSQIEGFNLSRRMELNIPVKKTLIVKNE	-2.55
HMEFDTEFVLRQAMHAFMQYGYAKTSMQKLKEATHLHPGSIYAAYGNKKGLFLAATEQYQKDR	0.288
HMEFEYFQLRDHLYNLIMHPDKEKLKKDPDYLKLMSMAFSLLEDQNVGKDILEIAIKSIENFK	-0.847
HMEFLDLEIDVDATDGRLLAFLAAKGEVVSQTFNDTIITVRVRMPTGAMGQVHRSALAIRPA	-2.24
HMEFLDQAFLHETMRKVNQDATINLLKKVYEVPQKFIGRKVTVQYDPEDLSRVYVKDLSFPEPVTVYPV	-0.18
HMEFNDLNDDEKAILHIMYNTGEKMTTALAARITNRGRNFASKLLKSLVKKEILEWHGTSKQDRNQYYTLA	-0.0971
HMEFQVKVIVSSLNIRSGPGTSYDTLGTVTKGDIFTIVETNSDSTWGKMQSGGWISIKDAYVKK	-3.92
HMEFTFTLPRGYIDDTGMIHREGTMRLANAADEILPLKDPRVQQNPGYLTIILLARVITKLGSL	0.33
HMEFTKSPLDEIAGVGPARKRALLAAFGTAKAVSQAALADLEKTPGVNAATARLVYAHFHEK	-0.227
HMEFTVFMNSAGGSKLQVVKTVKELTGLGLKEAKAIVDGSPGPVKEGLSKADAEAMLAKLQEAGADVEL	0.013

Sequence	soluble fraction (log2)
HMEFYYSDLVGMIVYDTGGNELGKVQAVLNHGAGDLLEIHGVNLKTSILIPFTKEAVPTVDIAARRIVTDP	0.246
HMEGAEDMNRALALAFLRDNSRSTVAQLAEHLGSSKRSAERLVAQLKDEGVLERQGSPRAGLWIVHI	-0.169
HMEGEVVESPLVGVAYLASGPDKPAFVQVGDSVSKGQTLLIIEAMKVMNEVPAPRDGIVTEILV	0.1
HMEGFSAGQFVRASVDNTAFYLKRPKGDAVADKLLRRGASMKVISASGDYLKVELDSGEVGFVPPVMVE	0.0267
HMEGIWAVFYDGKPINLKSSSLVANYPGPKYKKVSFSNPGHAENLAKKLNAQHNTDKFGVYLLKSGDKFS	-0.113
HMEGMSIYVTVNGDMVHLTGKMSYVFVDVFEHIDFDLSKPQGSGIVTKLNGRDAQYMEEIRSGDMIEIYWR	-0.956
HMEGNLVEIFEDAFGRTMSTMDIEYINQFKRTGYDDEMIVSALREAVKSNALSFRYIERVLENWAHS	-0.881
HMEGTEVTTEPPGAQIEFDGKQFGPTPTRVPGLAAGKQFRITLAGYQEAKPKLKNNPKEGEPLSFTLTAI	0.338
HMEGTVQQDKFDAYKAKFEDAISNDLNTSMAITIIYDLLKDDMNDKTKLALINDFDKVLSLNLTTA	-0.219
HMEGVTVPDVTRISLDEAEELLTSYGLRFEVADRRANSAFPGNYVIDQAPSAEVIVKPNRKIYLTVNAA	-0.238
HMEHDTVLSKVFRRLREAHVPLSLDDIYQGLRKTVNNNSEIREKIVTLQERGLVAEILGPKGGKKYVAKPT	-0.693
HMEHIEVDTSHIAVGSKVKHKAFGLGEITDKGNTYVFVKFDGQAIPKKFQFPGAFTQGFLTK	0.236
HMEHPNNTELTQKLELGTELMQYGDYNYALKVFNNVIDSDPEWSEAWNKRATVYFLMSQFTDSLSDIDRV	0.331
HMEIDMQEGIKTIILMMKEHNITPSEAMKIYKSANGDIHYISKIYNHFKNKGADNFVALMIKMVKPGEFIE	-2
HMEIEETKKNSRTKIPENFDYKLINGLSNEIRAKLELIRPIDLLQASRIDGMTPAALTLVHLWIKKYSG	-1.52
HMEIEIPEELQNKFAEIPELKTAFESLTPGRQRAYVLYFSQPKQSKTREARIEKYIPHILDGKGMN	0.461
HMEIESAHAQVLGVREIAASGATQHWIAFRFSDGHQRELLATPSQADVIFRGQQGVVHFAGDRLTGWIPE	0.104
HMEIEYFDDEELDAYKGRKSDSYTDEEAAQFAEVLYTMRPSEVKDWTASLTLRGISMPDQIKDEAIMLME	-0.148
HMEIGELITLYRKQAGLTIDELSEKANVPKGTLNKIIGGITKAPTLETMRSIAYALGKKLADFDN	-0.503
HMEIHQVEFGGKVISFVLERKPVKNVNLHIKPDMTVMVSANEKVPLDFILGFVKQKAAWILKNIQFFEDV	-3.57
HMEIKDQADAYGKMEPASAAAILSEMTNDLTLVAKILDSMQTSKSALILQNMKPTTAAQVTTKMTAMK	0.0474
HMEILTRQLTHYLHLLPPAQQEVVRGVYLQDQTLQEIADRVQIPLGTVKSRLRLGLSKLREQIEQEHE	-1.36
HMEIMELPEYVVRSGSGLDAFREKWDLWDQGLMYDLKDKRAVFPIFIDGVMIDAVGRALAGAEPKWLRYTG	-0.176
HMEINEDEIYEKIMIEIEQDNKVKSTWAKALSQSDGNKDKAESLYISMRFEELKYHQSYQKEELNLKDNQQ	0.0614
HMEIPRYRLIGADGGRMVDLGEGQGAIPPVDVKRGMIDMPGLGKGYYTADGKSAVITNADGSKTRVL	-0.25
